Experimental data from PMC3580838.

Columns and labels:
GST:CcmC(W^5A/D126A) = GST:CcmC(W^5A/D126A) (UniProt P0ABM1); experiment: pull-down
GST:CcmC(H60A/H184A) = GST:CcmC(H60A/H184A) (UniProt P0ABM1); experiment: pull-down

CcmE (from UniProt P69490 30-159) (natural protein)
% CcmE bound with heme (GST:CcmC(W^5A/D126A)): < 4%
% holoCcmE bound with heme (GST:CcmC(W^5A/D126A)): < 3%
% CcmE bound with heme (GST:CcmC(H60A/H184A)): < 4%
% holoCcmE bound with heme (GST:CcmC(H60A/H184A)): < 3%
